Experimental findings from paper doi:10.1101/2023.12.13.571504 (bioRxiv, 2023) are described below.

Changes are numbered by the printed parent chain. Names may count otherwise.

The data set concerns the molecule itself. Description: cross-linking.

B1: msfGFP-GRP8^WT (Arabidopsis thaliana Glycine-Rich RNA-Binding Protein 8 fused to monomeric superfolder GFP) (natural protein, UniProt Q03251 1-169, looked up)
chain: MSEVEYRCFVGGLAWATNDEDLQRTFSQFGDVIDSKIINDRESGRSRGFGFVTFKDEKAMRDAIEEMNGKELDGRVITVNEAQSRGSGGGGGGRGGSGGGYRSGGGGGYSGGGGGGYSGGGGGGYERRSGGYGSGGGGGGRGYGGGGRREGGGYGGGDGGSYGGGGGGW
By stoichiometry N is commonly meant a count of units in the complex or per binding partner. Regarding B1, the “stoichiometry N” value came out at 2.

B2: msfGFP-GRP8^R7A (natural protein, Arabidopsis thaliana, UniProt Q03251 1-169, looked up)
chain: B1 chain with R7A
B2: the binding result is “binds”.
